# B1: One-armed Effector Negative (EN) domain-exchanged anti-EGFR antibody (antibody)
# heavy: QVQLVQSGAEVKKPGASVKVSCKASGYTFTSHWMHWVRQAPGQGLEWIGEFNPSNGRTNYNEKFKSKATMTVDTSTNTAYMELSSLRSEDTAVYYCASRDYDYDGRYFDYWGQGTLVTVSSASTKGEPQVYTLPPSRDELTKNQVSLYCLVKGFYPSDIAVEWESNGQPENNYKTTPPVLDSDGSFFLYSKLTVDKSRWQQGNVFSCSVMHEALHNHYTQKSLSLSKSCDKTHTCPPCPAPPVAGPSVFLFPPKPKDTLMISRTPEVTCVVVDVSHEDPEVQFNWYVDGVEVHNAKTKPREEQAQSTFRVVSVLTVVHQDWLNGKEYKCKVSNKGLPAPIEKTISKTKGQPFRPEVHLLPPSREEMTKNQVSLTCLARGFYPKDIAVEWESNGQPENNYKTTPSRQEPSQGTTTFAVTSKLTVDKSRWQQGNVFSCSVMHEALHNHYTQKTISLSPGK
# chain: EPKSSDKTHTCPPCPAPPVAGPSVFLFPPKPKDTLMISRTPEVTCVVVDVSHEDPEVQFNWYVDGVEVHNAKTKPREEQAQSTFRVVSVLTVVHQDWLNGKEYKCKVSNKGLPAPIEKTISKTKGQPREPQVYTLPPPSEELALNELVTLTCLVKGFYPSDIAVEWLQGSQELPREKYLTWAPVLDSDGSFFLYSILRVAAEDWKKGDTFSCSVMHEALHNHYTQKSLDRSPGK
# light: DIQMTQSPSSLSASVGDRVTITCSASSSVTYMYWYQQKPGKAPKLLIYDTSNLASGVPSRFSGSGSGTDYTFTISSLQPEDIATYYCQQWSSHIFTFGQGTKVEIKRTVAEPQVYTLPPSRDELTKNQVSLTCLVKGFYPSDIAVEWESNGQPENNYKTTPPVLDSDGSFFLTSKLTVDKSRWQQGNVFSCSVMHEALHNHYTQKSLSLSGEC
# notes: One Fab arm only; effector negative Fc (modified IgG2 CH2 F296A, N297Q); also called one-armed domain-exchanged EN anti-EGFR antibody; one-armed effector negative anti-EGFR antibody
# Target: T1, CD16a receptor (FcγIIIa) (UniProt P08637 17-254, limits assumed)
# T1 construct: whole, on cells
# Test: CD16a HTRF cellular binding assay (CisBio), competition with labeled human IgG
# Procedure: FIG. 14: Binding of antibodies to CD16a receptor. Binding was measured using CD16a HTRF cellular binding assay (CisBio). Measurement was performed in duplicates.
# T1 sequence (P08637 17-254 limits assumed): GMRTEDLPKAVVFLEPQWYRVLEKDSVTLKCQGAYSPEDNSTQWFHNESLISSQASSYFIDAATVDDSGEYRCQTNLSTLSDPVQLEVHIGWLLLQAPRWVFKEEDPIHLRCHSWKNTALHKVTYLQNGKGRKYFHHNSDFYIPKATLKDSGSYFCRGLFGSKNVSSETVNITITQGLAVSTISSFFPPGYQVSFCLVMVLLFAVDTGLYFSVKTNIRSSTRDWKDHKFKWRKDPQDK
binder,measurement,value
B1,binding result,no binding

# — patent US20180016354A1 (Merck KGaA, published 2018)
